In publication PMC2588538, “Structure of Reovirus σ1 in Complex with Its Receptor Junctional Adhesion Molecule-A” (PLoS Pathogens, 2008):

B1: σ1 of reovirus strain rsT3D-σ1T249I (parent), on purified virions [mammalian orthoreovirus, strain type 3 Dearing GST-JAM-A ectodomain fusion protein [not stated] (parent)
chain 1: MDPRLREEVVRLIIALTSDNGASLSKGLESRVSALEKTSQIHSDTILRITQGLDDANKRIIALEQSRDDLVASVSDAQLAISRLESSIGALQTVVNGLDSSVTQLGARVGQLETGLAELRVDHDNLVARVDTAERNIGSLTTELSTLTLRVTSIQADFESRISTLERTAVTSAGAPLSIRNNRMTMGLNDGLTLSGNNLAIRLPGNTGLNIQNGGLQFRFNTDQFQIVNNNLTLKTTVFDSINSRIGAIEQSYVASAVTPLRLNSSTKVLDMLIDSSTLEINSSGQLTVRSTSPNLRYPIADVSGGIGMSPNYRFRQSMWIGIVSYSGSGLNWRVQVNSDIFIVDDYIHICLPAFDGFSIADGGDLSLNFVTGLLPPLLTGDTEPAFHNDVVTYGAQTVAIGLSSGGAPQYMSKNLWVEQWQDGVLRLRVEGGGSITHSNSKWPAMTVSYPRSFT
chain 2: SVTVHSSEPEVRIPENNPVKLSCAYSGFSSPRVEWKFDQGDTTRLVCYNNKITASYEDRVTFLPTGITFKSVTREDTGTYTCMVSEEGGNSYGEVKVKLIVLVPPSKPTVNIPSSATIGNRAVLTCSEQDGSPPSEYTWFKDGIVMPTNPKSTRAFSNSSYVLNPTTGELVFDPLSASDTGEYSCEARNGYGTPMTSNAVRMEAVERNVGV

Variants of: B1
Experiment: SPR
Settings: with GST-JAM-A ectodomain fusion protein, GST-JAM-A captured on biosensor surface, read off a plot
[1] = 6×1012 (green) particles/ml virus, parent: 62
[2] = 8×1012 (orange) particles/ml virus, parent: 98
[3] = 1013 (red) particles/ml virus, parent: 205

## chain 1 E384A
[1]
  response: 140 RU
[2]
  response: 280 RU
[3]
  response: 460 RU

## chain 1 G381A
[1]
  response: 17 RU
[2]
  response: 28 RU
[3]
  response: 36 RU
